Assay results published in paper PMC7042382 (2020).

Target: HIV-1 Gag protein peptide on HLA-B*57:01 (human)
Experiment: multimer staining

B1: A16.1 (TCR)
alpha TRAV4 TRAJ9 CDR3: CLVGEVRGGFKTIF
beta TRBV4-3 TRBJ2-5 CDR3: CASSQARGGAETQYF
  binding result: recognises

B2: A16.2 (TCR)
alpha TRAV4 TRAJ20 CDR3: CLVGGEDYKLSF
beta TRBV4-3 TRBJ2-5 CDR3: CASSQARGGAETQYF
  binding result: recognises
